Details: Escherichia coli, pH 6.3, CD, Phosphate 50 mM, NaCl 300 mM, whole UniProt chain shown

B1: Regulatory protein rop wild type, P03051 (protein)
chain: MTKQEKTALNMARFIRSQTLTLLEKLNELDADEQADICESLHDHADELYRSCLARFGDDGENL
**Q.** Which Tm (Thermal) does the source give for B1 here?
**A.** The Tm was 70 °C.

**Q.** And the “heat capacity change of unfolding” value (Thermal)?
**A.** Its value is 1.1 kcal/mol/K.

**Q.** What about the “unfolding enthalpy (van 't Hoff)” value (Thermal) of the same protein?
**A.** Its value is 65 kcal/mol.

**Q.** And the denaturant m value (Urea)?
**A.** The denaturant m value was 2.1 kcal/mol/M.

**Q.** And the “denaturant midpoint (higher = more stable)” value (Urea)?
**A.** The value was 4.6 M.

**Q.** And the unfolding free energy (Urea)?
**A.** Its unfolding free energy is 16 kcal/mol.
